Reference: publication PMC7824710

How the values were obtained:
[1] = target: recombinant kinase domain of MKK7 (MKK7-KD), residues 101–405 (UniProt O14733); assay: other fluorescence titration; tryptophan fluorescence quenching at 334 nm; MKK7-KD at 1.25 µM in phosphate buffer pH 7.5, peptide 10 nM to 140 µM; fit log[inhibitor] vs. response, variable slope
[2] = target: recombinant kinase domain of MKK7 (MKK7-KD), residues 101–405 (UniProt O14733); assay: other fluorescence titration; FITC fluorescence quenching; FITC-labelled peptide at 10 nM titrated with soluble MKK7-KD 0-1000 nM; 96-well black plates, 200 µL, excitation 488 nm, emission at 517 nm; one-site total fit

Chain of UniProt O14733 (O14733 101-405): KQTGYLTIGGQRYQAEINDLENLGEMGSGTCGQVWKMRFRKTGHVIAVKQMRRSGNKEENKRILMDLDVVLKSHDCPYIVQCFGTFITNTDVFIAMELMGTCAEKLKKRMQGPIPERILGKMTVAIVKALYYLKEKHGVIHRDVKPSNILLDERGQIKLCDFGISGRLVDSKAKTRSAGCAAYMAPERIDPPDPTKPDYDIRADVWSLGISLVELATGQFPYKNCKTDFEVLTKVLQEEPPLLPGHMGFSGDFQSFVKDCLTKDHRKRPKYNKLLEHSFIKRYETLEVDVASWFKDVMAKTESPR

Kd [1] [nM] | Δ Fluorescence at 334 nm (at concentrations above 10 µM) [1] [units] | Kd [2] [nM] | Substance
240 |  |  | DTP3 (Ac-D-Tyr-D-Arg-D-Phe-NH2) (peptide)
41000 | 4 |  | scramble (SCRB) peptide (Ac-D-Arg-D-Phe-D-Tyr-NH2)
 |  | 123 | FITC-βAla2-DTP3 (peptide)
